Kd data for 16 molecules are collected here from paper PMC10786891, “Massively parallel profiling of RNA-targeting CRISPR-Cas13d”.

Numbering of substitutions follows the chain as printed. Numbers in names are those of the source.

To fix the notation:
T1: EsCas13d, nuclease-dead (Eubacterium siraeum, UniProt B0MS50, R295A;H300A;R849A;H854A)
T1 sequence: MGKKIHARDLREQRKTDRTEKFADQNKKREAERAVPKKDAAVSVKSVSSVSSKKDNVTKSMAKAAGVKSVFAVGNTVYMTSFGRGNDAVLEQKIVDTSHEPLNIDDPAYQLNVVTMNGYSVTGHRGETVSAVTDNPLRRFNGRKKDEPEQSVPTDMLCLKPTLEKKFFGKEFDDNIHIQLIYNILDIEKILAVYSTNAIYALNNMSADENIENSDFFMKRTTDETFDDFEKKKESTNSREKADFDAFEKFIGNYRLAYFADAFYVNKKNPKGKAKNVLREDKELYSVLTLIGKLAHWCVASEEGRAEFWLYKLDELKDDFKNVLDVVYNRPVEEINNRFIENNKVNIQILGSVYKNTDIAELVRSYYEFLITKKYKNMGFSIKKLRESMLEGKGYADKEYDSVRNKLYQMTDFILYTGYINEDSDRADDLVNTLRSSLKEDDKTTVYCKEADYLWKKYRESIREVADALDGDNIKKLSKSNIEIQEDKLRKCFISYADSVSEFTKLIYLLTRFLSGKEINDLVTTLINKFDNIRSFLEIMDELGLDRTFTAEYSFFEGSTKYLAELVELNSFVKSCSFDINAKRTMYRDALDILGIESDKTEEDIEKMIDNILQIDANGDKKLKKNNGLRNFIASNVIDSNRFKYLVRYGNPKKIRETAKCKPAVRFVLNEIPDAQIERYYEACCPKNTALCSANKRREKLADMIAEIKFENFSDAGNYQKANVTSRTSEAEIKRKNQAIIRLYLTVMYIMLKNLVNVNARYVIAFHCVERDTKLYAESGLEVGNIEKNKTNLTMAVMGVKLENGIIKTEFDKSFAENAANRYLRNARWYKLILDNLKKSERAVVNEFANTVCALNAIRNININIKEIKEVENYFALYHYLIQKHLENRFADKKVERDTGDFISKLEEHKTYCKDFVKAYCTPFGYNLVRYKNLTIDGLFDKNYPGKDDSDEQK

B1: target 2 MT 5'PFS GAC 3'PFS CCG (mixed)
RNA 1: CACCCGUGCAAAAUUGCAGGGGUCUAAAACCUUCUCCAAAUUGUUUCAUCCU
RNA 2: GGGAAUGGAUCCACAUCUACGAAUUCGACAGGAUGAAACAAUUUGGAGAAGCCGAGAUCGGAAGAGCACACGU
B2: target 2 MT 5'PFS GCU 3'PFS UUC (mixed)
RNA 1: B1 RNA 1
RNA 2: B1 RNA 2 with A28C, C29U, C52U, C53U, G54C
B3: target 2 MT 5'PFS ACA 3'PFS CGG (mixed)
RNA 1: B1 RNA 1
RNA 2: B1 RNA 2 with G27A, A28C, C29A, C53G
B4: target 2 MT 5'PFS UUA 3'PFS UUG (mixed)
RNA 1: B1 RNA 1
RNA 2: B1 RNA 2 with G27U, A28U, C29A, C52U, C53U
B5: target 2 MT 5'PFS GCA 3'PFS CUU (mixed)
RNA 1: B1 RNA 1
RNA 2: B1 RNA 2 with A28C, C29A, C53U, G54U
B6: target 2 MT 5'PFS UUA 3'PFS UUU (mixed)
RNA 1: B1 RNA 1
RNA 2: B1 RNA 2 with G27U, A28U, C29A, C52U, C53U, G54U
B7: target 2 MT 5'PFS ACA 3'PFS AGG (mixed)
RNA 1: B1 RNA 1
RNA 2: B1 RNA 2 with G27A, A28C, C29A, C52A, C53G
B8: target 2 MT 5'PFS GUC 3'PFS CUU (mixed)
RNA 1: B1 RNA 1
RNA 2: B1 RNA 2 with A28U, C53U, G54U
B9: target 2 MT 5'PFS CGC 3'PFS CUC (mixed)
RNA 1: B1 RNA 1
RNA 2: B1 RNA 2 with G27C, A28G, C53U, G54C
B10: target 2 MT 5'PFS CGC 3'PFS CUG (mixed)
RNA 1: B1 RNA 1
RNA 2: B1 RNA 2 with G27C, A28G, C53U
B11: target 2 MT 5'PFS UUA 3'PFS UUA (mixed)
RNA 1: B1 RNA 1
RNA 2: B1 RNA 2 with G27U, A28U, C29A, C52U, C53U, G54A
B12: target 2 MT 5'PFS ACA 3'PFS CGC (mixed)
RNA 1: B1 RNA 1
RNA 2: B1 RNA 2 with G27A, A28C, C29A, C53G, G54C
B13: target 2 MT 5'PFS CGC 3'PFS CUA (mixed)
RNA 1: B1 RNA 1
RNA 2: B1 RNA 2 with G27C, A28G, C53U, G54A
B14: target 2 MT 5'PFS AGA 3'PFS UCC (mixed)
RNA 1: B1 RNA 1
RNA 2: B1 RNA 2 with G27A, A28G, C29A, C52U, G54C
B15: target 1 insC 3' of 8,insG 3' of 3 (mixed)
RNA 1: CACCCGUGCAAAAAUGCAGGGGUCUAAAACUGAGCGGAUAACCUCUCUAUGG
RNA 2: GGGAAUGGAUCCACAUCUACGAAUUCGUACCAUAGAGAGGUUAUCCCGCUGCACCGAGAUCGGAAGAGCACACGU
B16: target 1 G5C,C21U (mixed)
RNA 1: B15 RNA 1
RNA 2: GGGAAUGGAUCCACAUCUACGAAUUCGUACUAUAGAGAGGUUAUCCCCUCACCGAGAUCGGAAGAGCACACGU

This data set has as its target T1, EsCas13d, nuclease-dead. The data set is described as follows: crRNA (strand 1, pre-loaded); Mg2+; 40 mM Tris-HCl pH 7.5, 150 mM NaCl, 6 mM MgCl2, 1 mM DTT, 0.1% Tween-20, 0.2 mg/ml BSA; 25 C; 10 min per concentration, then washed. Particulars: tags: His6-TwinStrep-SUMO cleaved; N-terminal SNAP kept (SNAP-Surface 488); label: 3' end held by stalled T7 RNA polymerase.
Molecule B1 returned a Kd of 13 ± 1.5 nM. With B2 the figure was roughly 90 nM; with B3, 5.2 ± 0.9 nM; with B4, 19.3 ± 2.8 nM. In turn, B5 registered a Kd of 16 ± 4 nM. Turning to B6, the dissociation constant (Kd) was roughly 70 nM. Next, B7: 4.9 ± 0.6 nM; B8: 13.9 ± 1.2 nM; B9: 9.6 ± 1.7 nM.

B10 registered a Kd of 8 ± 1.9 nM. B11 gave a Kd of 49 ± 21 nM. Next, B12: 4.9 ± 0.7 nM; B13: 7.4 ± 1.8 nM. Next, B14: 43 ± 15 nM; B15: 9.8 ± 0.4 nM. B16 yielded an equilibrium dissociation constant (Kd) of 7.1 ± 0.4 nM.

The term Kd denotes the free concentration of one partner at which half of the binding sites on the other are occupied at equilibrium, for simple one-to-one binding. A low value points to a tighter complex.
